Experimental data from paper PMC1762375.

Columns and labels:
Test in all cases: two-hybrid; yeast strains L40 or PJ69-4A; β-galactosidase quantitative liquid assays, fold activation with respect to the empty vector, at least four independent protein extracts
[1] = molecular target: Cno NH, LexA bait fusion (Drosophila)
[2] = molecular target: Cno-MP, LexA bait fusion (Drosophila) (UniProt Q24279)
[3] = molecular target: DSH-FLN, LexA bait fusion (Drosophila) (UniProt P51140)
Sequence of UniProt P51140 (P51140 whole entry, the tested form may be a part): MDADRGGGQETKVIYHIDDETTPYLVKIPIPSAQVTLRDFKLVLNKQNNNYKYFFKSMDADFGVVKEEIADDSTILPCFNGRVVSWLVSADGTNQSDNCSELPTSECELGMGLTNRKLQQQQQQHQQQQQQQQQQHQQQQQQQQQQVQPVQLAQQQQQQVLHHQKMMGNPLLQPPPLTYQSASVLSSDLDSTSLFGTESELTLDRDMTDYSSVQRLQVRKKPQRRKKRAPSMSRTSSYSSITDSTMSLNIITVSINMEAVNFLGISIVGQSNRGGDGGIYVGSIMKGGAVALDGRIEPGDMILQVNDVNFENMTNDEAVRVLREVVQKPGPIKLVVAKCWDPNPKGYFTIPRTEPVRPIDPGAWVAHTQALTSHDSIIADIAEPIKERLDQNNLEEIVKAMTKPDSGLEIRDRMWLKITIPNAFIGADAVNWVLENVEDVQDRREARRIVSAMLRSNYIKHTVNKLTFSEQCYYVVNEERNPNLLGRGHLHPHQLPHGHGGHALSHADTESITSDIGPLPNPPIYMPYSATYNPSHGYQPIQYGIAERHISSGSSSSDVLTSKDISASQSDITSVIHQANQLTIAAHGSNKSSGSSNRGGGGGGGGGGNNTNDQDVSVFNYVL

Sequence of UniProt Q24279 (Q24279 entry or part of it): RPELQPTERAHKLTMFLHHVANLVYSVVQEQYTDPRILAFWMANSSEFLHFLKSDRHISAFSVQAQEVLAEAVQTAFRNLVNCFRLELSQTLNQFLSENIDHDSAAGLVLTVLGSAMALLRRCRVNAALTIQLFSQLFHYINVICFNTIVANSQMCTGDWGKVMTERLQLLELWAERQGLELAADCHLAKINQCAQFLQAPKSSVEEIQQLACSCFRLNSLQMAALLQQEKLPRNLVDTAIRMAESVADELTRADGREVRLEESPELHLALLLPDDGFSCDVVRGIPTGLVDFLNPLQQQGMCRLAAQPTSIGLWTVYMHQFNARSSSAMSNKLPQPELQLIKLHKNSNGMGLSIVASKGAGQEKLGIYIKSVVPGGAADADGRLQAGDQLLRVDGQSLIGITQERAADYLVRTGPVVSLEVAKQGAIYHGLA

fold activation (β-galactosidase, against the empty vector) (fold activation) [1]	fold activation (β-galactosidase, against the empty vector) (fold activation) [2]	fold activation (β-galactosidase, against the empty vector) (fold activation) [3]	Substance
40	40	–	Notch-ICN1, prey fusion (domain or fragment)
20	20	3	Notch-ICN2, prey fusion (domain or fragment)
